Results on 17 sequences are retold here after the DeepSol protein solubility set.

The nature of this data set: soluble on expression in E. coli; label from the status in PepcDB or PDB records.
On to “MLTIPEKENRGSKEQEVAIMIDALADKGKKALEALSKKSQEEIDHIVHQMSLAAVDQHMVLAKLAHEETGRGIYEDKAIKNLYASEYIWNSIKDNKTVGIIGEDKEKGLTYVAEPIGVICGVTPTTNPTSTTIFKAMIAIKTGNPIIFAFHPSAQESSKRAAEVVLEAAMKAGAPKDIIQWIEVPSIEATKQLMNHKGIALVLATGGSGMVKSAYSTGKPALGVGPGNVPSYIEKTAHIKRAVNDIIGSKTFDNGMICASEQVVVIDKEIYKDVTNEFKAHQAYFVKKDELQRLENAIMNEQKTGIKPDIVGKSAVEIAELAGIPVPENTKLIIAEISGVGSDYPLSREKLSPVLALVKAQSTKQAFQICEDTLHFGGLGHTAVIHTEDETLQKDFGLRMKACRVLVNTPSAVGGIGDMYNELIPSLTLGCGSYGRNSISHNVSATDLLNIKTIAKRRNNTQIFKVPAQIYFEENAIMSLTTMDKIEKVMIVCDPGMVEFGYTKTVENVLRQKTEQPQIKIFSEVEPNPSTNTVYKGLEMMVDFQPDTIIALGGGSAMDAAKAMWMFFEHPETSFFGAKQKFLDIGKRTYKIGMPENATFICIPTTSGTGSEVTPFAVITDSETNVKYPLADFALTPDVAIIDPQFVMSVPKSVTADTGMDVLTHAMESYVSVMASDYTRGLSLQAIKLTFEYLKSSVEKGDKVSREKMHNASTLAGMAFANAFLGIAHSIAHKIGGEYGIPHGRANAILLPHIIRYNAKDPQKHALFPKYEFFRADTDYADIAKFLGLKGNTTEALVESLAKAVYELGQSVGIEMNLKSQGVSEEELNESIDRMAELAFEDQCTTANPKEALISEIKDIIQTSYDYKQ”, for which the “soluble on expression in E. coli” value is reported as “not soluble”.

As for “MLTLNYYVEITATPQRVWRVLTDAELYKRWAQAFSPQSQFEGEWEEGSDITFFDPDMGGTRAVIDSVQPLHRLEFHHVAIFNPDNRQQLDADIAAKWIGSREIYQIDTEDERLLLNITIHTHSDFVSMFNNGWEKALPLIKSICEETDSQLEHHHHHH”, the “soluble on expression in E. coli” value is recorded as “soluble”.

“MLTMSKAVESLQRFLMPKAGEPHDVRMLYLIESEHNNGRAMWNDRHSVAISAGDEVSFQTYFNAFPASYWRRWTQLDNVILRVEVTGTARVDVFRTKIDGASYAEQGQVVSDGVVEFDLSLAPFEDGGWLWFYVTAETDVTFKAGWYAPQAPQPQVMPDGSQVGPFDKRVTVGIPTFNRPTDAVAALTALSEDPEVDAVIDAVIMPDQGNKHPADEPGYKEATEHFGDRFFEFRQGNLGGSGGYSRIMYEALGGVDGTKPAGAAQSPYILYMDDDIAIEPDSVLRALQVARYAKSPILVGGQMLSLQERSHLHSMGEVVDRNIFMWTSAPFVHYDHDFAKYPLSDRPSPDAPSDRPKTEDLHRRIDVDYNGWWMCMIPRVVAEQIGQPLPLFIKWDDAEYGLRAGNAGFATATWPGVAIWHLAWSDKDDAIDWQAYFHLRNRLIVGAIENGNPAGMVRSMQKATLKHLLCLEYSTVAVQNEAMKDFLAGPSHLFDILETSLPHINALRKNYSDAVVLPSAADLPRPSGAPGVPTVYNLSGPLAPVKKVGWLLKGIKHTLSKENPQHHDVPQANLAPINARWFSLSRLDGATVSTADGRGVVYRKRDRAQAKELLQESYRLQKEVAANFDRLREEYRAAHKELTSREAWAKIFEEPQGAEES”: the “soluble on expression in E. coli” value is listed as “not soluble”.

Turning to “MLTPISIEKEHIRLINLLHFINEQNRWFTIKELSDYLQVADKTVRKYLKLLEDEIPPSWNLLVQKGKGIYLKKPLNESLSFVESKILRKSLNLQICEELVFKKNSMQSLAQKLHLQVGALYPIINQINYDIQSSHLNIKKKPLEISGREQDVRVFMLRLYCNIPNDYWPFPYINKQNITDLINKMEKILNVQMYTYSKHKLCVLFAITISRLLSGNTIDNVSGLILVNKNDDHYKTVASITSELQNSFGVTLHETEISFLALALLLSLGNSITTDSNKTLTSYKKTIMPLAKEITKGIEHKLQLGINYDESFLTYVVLIIKKALDKNFIQYYNYNIKFIRHIKQRHPNTFNTIQECISNLNYTVYSHFDCYEISLLTMHFETQRMLFKNNPKKIYVYTSQGCIHREYISALLEKRYNGLIKIVRNTIINLTNESLQDMEIDIIISNVNLPIKNIPIVQISEFPTERDFHEIKKII”, the “soluble on expression in E. coli” value was “not soluble”.

With “MLTRCQARLLGLTSGEDGGASGSSTSSVPQSPTGVATSGLPRVSGYSIACEASSATSAKPGDPPPFIRRLSLAATSSSSASTAARGCRTNSFFEPSASASKAALHVNSGSGGDGGGGRARLGARPTDAPLSKAQAAIDYWTAASTTAGPSIWFAKDSASPWRALHVSSPKAAVHVTGSFGATLKSADGSSLAGCSARLTAAQLRVRWCGVTRNCSSLHASTRATANGGGAPRASANSVHGVHTAQLSIAACPASTPPRTEFVIEARAGIATSGGDSTGVAQQTDRALAPLNVASRRSLALFTSPFYADVAAPALSASAAALGATEAAALLPVMHQISTQRAAAAALALRQRKEDVRAQRQRRICHEVHNQVYMKAHEVRMRLLFGLSGTDSDAATPAPSGTLAQGHAVAPSAPSKAALGEDHIAADEEAYLQSLNPSKSDEEAKVLRVVASIDAALRRHLASAYKDASQPTFPSESSSADQRVRAADAVADHHHHHHFTDGFAARQPAILEAVIADATRRVESFTGELLPYQQEGVRWLLRLTAVEHMGGILADDMGLGKTAQTVVYLSCYKDMVERVVQGLLEELEQRHARLCQRALGLTVTATGSGALAREAGSVEEGEMPSWLTWCAEATAKGEYISRRTEGRLQRSSSTIQPLMRGVAHGDSIAASAPLAATVEPASTAATPELAAARAWWLHKTCEAGEAMAVAAGGGQGRGRHSCG”, the “soluble on expression in E. coli” value is on record as “not soluble”.

As for “MLTRLAAVLEERKNAAPDSSYVASLYHKGLNKILEKVGEESVETIIAAKDAAASGDCQDLIYETADLWFHSLVMLSALGQHPQAVLDELERRFG”, the “soluble on expression in E. coli” value is recorded as “soluble”.

For “MLTSDPSESTAHLQRTISNLSARNAKLAELLKASRDKLSILQDQLEDLAAPPSTYGTFLEFSGGRETAEVFTAGRHMRLRISPDVEKAELVPGVQVRLGEASQVVEVCDISTTGQLATLVELLADNRGLICDHTGEERVVKLAAALTEGVDKLPKAGDTLLVDPRAGYAFEVIPKTEVSTLA”, the “soluble on expression in E. coli” value is “soluble”.

Take “MLTTDSLKRLWIFSFDRTLTAAGACYSKARLHRVTRQFLEELAALPGHRVAVLSSRPLDDLVSRVPIEGIYLGGSCGTEWHIPGGESMTLSGKPKDMLMETRDALLPTLREVADLPGVELEDRRWSAALHTQEANTKARQTLFARLAAVLKGWRVALYRNTTMVEIQFLPEITMAFGAQALCRFLGYRGDVVCAGSDENDATALRWALNQGGTALSLGRDPLVPGARPVVDVRSLARHVRDLAGIDEHHRTRMAGRRLCNAALEHHHHHH”: the “soluble on expression in E. coli” value was “not soluble”.

Regarding “MLVDHLLARGATDVRALTNHPDKAQLPDSVTVVEGYLRRLGSLPAAFEGVDSLYLAPTPDTAPDALALAKQAGVRHVVDLSGPHDGHWGDVARAVEASGIEWTHLWPGEFMENAGILAPQITAGDTVREPYPTAANAPIAMDDIAEVAAVALLESGHVGASYELTGPETITRAELVRELGAALGRNIEYRQVSLDEAVDVLTPAMGEYARWY”, the “soluble on expression in E. coli” value was “not soluble”.

On to “MLVKPPYSYIALITMAIQNAPEKKITLNGIYQFIMDRFPFYRENKQGWQNSIRHNLSLNECFVKVPRDDKKPGKGSYWTLDPDSYNMFENGSFL”, for which the “soluble on expression in E. coli” value is “soluble”.

“MLVNTKAKVGVFSIALGAYLPQFPSLVPEFEAQYEAFKKTIPDTVEIIDGGMVTTKEQSMVAGDKFRAADVDIVFLQMLTYATSYNMLPAIRDLDVPVVLVNVQKLKALDYDHTDIAAWLGEGYACGAVGEAVADLERAGKRHAVITGVVEGGDPAVQAEIEDWCKAAQVRRRFRDTNIAQIGRPYPGMMDLYIDETNLYNRMFLYTKQFDWEKMWAIADDITDEEAIRAKAQDILDTFDIEDGGTIEKVWDMAKYVVAFEKWVKDEHLSMVASHYDGFAQGKAGVLDSMLIPAFSMLIKQGTACAVEGDMKVAMAMSILKTISGTGQLSEMYSIDFNEDICIIGHSGSGDADISDKKPTMKIVPVFHGKTGGGYLTQFYPYTGPVTYLAITQDKDGHFKFVVAEGVNEEGPILSFGDTNMRTRFTCGAREFVNRWSEAGPTHHMAAATGRHIDTILKVAKIFNIPVDIVTR”: the “soluble on expression in E. coli” value is “not soluble”.

For “MLWSGCRRFGARLGCLPGGLRVLVQTGHRSLTSCIDPSMGLNEEQKEFQKVAFDFAAREMAPNMAEWDQKELFPVDVMRKAAQLGFGGVYIQTDVGGSGLSRLDTSVIFEALATGCTSTTAYISIHNMCAWMIDSFGNEEQRHKFCPPLCTMEKFASYCLTEPGSGSDAASLLTSAKKQGDHYILNGSKAFISGAGESDIYVVMCRTGGPGPKGISCIVVEKGTPGLSFGKKEKKVGWNSQPTRAVIFEDCAVPVANRIGSEGQGFLIAVRGLNGGRINIASCSLGAAHASVILTRDHLNVRKQFGEPLASNQYLQFTLADMATRLVAARLMVRNAAVALQEERKDAVALCSMAKLFATDECFAICNQALQMHGGYGYLKDYAVQQYVRDSRVHQILEGSNEVMRILISRSLLQE”, the “soluble on expression in E. coli” value is “not soluble”.

Turning to “MMDGDIIGENEDGIGVDVSDNNEIIHEISIEKGSWEIVYHEQDGYPDKAAKRTPDGNEHVNQARRFARYHVYKERGYETFPWDEHIGYIETVGDAIKSLSTEEFEDYFGEFYETVAGSLSLNSGGDITALFAAIQEKANAYYIDVYLDNDGQVEATSEVRQIIPTDDWQEELESPPEDTDRVPD”, the “soluble on expression in E. coli” value is “not soluble”.

For the sequence “MMEDGNYIINPWVYTDRMGMYRILLEETAMYFAKYGPENEQNLLWGLPLQFGWQYQSGRLADPTGMTDCGNELNESLCVSVDSWWADINYYLSVIPFLAAVDSGITGISPNQITILPPPKDQMRFCYNVSDCQSAVPGTMNRWRDFFQYMQLNSSDFDGLLNYLWEAHASSLDYPTSAFGDRYNFYSEKEANFEENWAIAVNYLAAARLPTTQNRTYSFQRGLPPRVLVDTDIAPFIPDFTPLQNEVLVSLKLLGDTDRNSGSLSLTLWENLMSTKLARTLFLKAFEEFLVTSS”, the “soluble on expression in E. coli” value was “soluble”.

Turning to “MMEGVRRAVAKFLRGGGVYEKAVDAFVKDLQRELIKADVNVKLVLNVTRRIKERALKEEPPPGVTRRDWMIKIVYEELVKLFGGDQEPQVDPPKTPWIVLLVGVQGSGKTTTAGKLAYYYVRRGYKVGLVSSDTHRPGAYEQLKRLAEEAGAMFYGEREGDPAEIARRGLEDLLSRGAEIVIVDTAGRHGHGEEARLLDEMKAIASKVRPDEVALVIDASIGQKAMGLAERFHKSTPIGSIIVTKMDGTARGGGALTAAAVTGARIKFIGTGETLGELEPFAPRRFVARILGMGDLESLLERIKSLEEAGELDRAAEDVLKGRITMRTIYRQLRAMRKLGPLGKVLQMLPGASMLASIDEGALKLGEEKMKRWMAIIESMTYEELDRPEIIDKRRMRRIAIGSGTSVDDVRELLVYYKNLKTMMKKLKRDKRLLRRLGMEL”, the “soluble on expression in E. coli” value is given as “soluble”.

In the case of “MMGLLSTIRGKKEPVVGNGIGSAQVGPLNAKTKKLVIQEWPRVLAQCPELFTEIWHKSATRSTSIKLAFGIAENESPMQNAAFLGLSSTIQAFFYKLIITYELNDDQVREACEQLGARHVDFISRGFNSHFWDIFLVCMAEKIDETLSAYIPDEDKRNEMILAWQRVINSIVHQMRNGYSDRRKQQLGGTKGGSNNGF”, the “soluble on expression in E. coli” value was “not soluble”.

In the case of “MMIDDSKVSFVIPTINEEGTIGSVIDGIRSEFPNSEIIVVDTNSTDRTREIARSKGARVIEEPRRGYGRAYQTGIPAASGEIIVCMDGDGTYPTDVVKPLIELLIADRVDFISCDRITFRTSKNYTTLHYVGNMVLNLTIRILFKVRMVDSQSGMWVFRSEIYRKMKNLGNGMSFSQNIKIEAVRHGVFMEIPIRYGVRITKPKLKTWHDGFHNLFALFVKRVSE”, the “soluble on expression in E. coli” value is on record as “not soluble”.
